Reference: US20230416394A1 (ELPISCIENCE SUZHOU BIOPHARMA, published 2023)

Legend:
human CD39 [1] = target: T1, human CD39 (human, UniProt P49961 1-510); assay: cell-based or functional assay
T1 sequence: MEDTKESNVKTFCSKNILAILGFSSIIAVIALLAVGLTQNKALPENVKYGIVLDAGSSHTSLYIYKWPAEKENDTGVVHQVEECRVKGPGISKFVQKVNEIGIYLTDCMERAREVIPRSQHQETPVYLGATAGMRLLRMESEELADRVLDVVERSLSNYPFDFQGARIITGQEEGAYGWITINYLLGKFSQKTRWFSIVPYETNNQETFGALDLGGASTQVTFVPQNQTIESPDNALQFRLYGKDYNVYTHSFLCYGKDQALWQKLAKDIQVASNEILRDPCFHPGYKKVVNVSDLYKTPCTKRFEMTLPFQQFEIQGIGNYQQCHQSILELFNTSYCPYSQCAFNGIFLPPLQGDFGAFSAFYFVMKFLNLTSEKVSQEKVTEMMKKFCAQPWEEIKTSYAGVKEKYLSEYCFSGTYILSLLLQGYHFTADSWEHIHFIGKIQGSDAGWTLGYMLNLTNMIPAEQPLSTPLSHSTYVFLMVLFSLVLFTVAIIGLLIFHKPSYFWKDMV

mouse CD39 = target: T2, mouse CD39 (mouse, UniProt P55772 1-510); assay: FACS, CHOK1-mCD39 cells
T2 construct: whole, on cells; also called mCD39; CHOK1-mCD39
T2 sequence (looked up): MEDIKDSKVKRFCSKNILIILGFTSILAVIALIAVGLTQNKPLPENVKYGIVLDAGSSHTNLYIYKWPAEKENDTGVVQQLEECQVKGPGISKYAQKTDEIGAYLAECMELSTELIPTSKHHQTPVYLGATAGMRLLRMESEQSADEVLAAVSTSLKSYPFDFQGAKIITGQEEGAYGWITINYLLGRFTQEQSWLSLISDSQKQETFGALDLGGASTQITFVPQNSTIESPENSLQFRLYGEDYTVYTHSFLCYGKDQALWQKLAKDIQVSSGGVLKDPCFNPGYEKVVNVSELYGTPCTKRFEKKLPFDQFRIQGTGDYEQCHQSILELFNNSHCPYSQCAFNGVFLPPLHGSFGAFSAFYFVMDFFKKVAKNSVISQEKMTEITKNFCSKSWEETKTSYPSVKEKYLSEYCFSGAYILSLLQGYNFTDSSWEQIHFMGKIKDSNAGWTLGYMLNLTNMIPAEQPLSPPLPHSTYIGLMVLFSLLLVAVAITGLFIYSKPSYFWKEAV
Description: FACS were used to determine binding of the antibodies to cell lines expressing CD39 naturally (SK-MEL-28) or recombinantly (CHOK1-hCD39, CHOK1-cynoCD39, and CHOK1-mCD39), or with cells lacking CD39 expression (CHOK1-blank) as a negative control.
CHOK1-hCD39, CHOK1-cCD39, CHOK1-mCD39 and CHOK1-blank cells were maintained in culture medium according to ATCC procedure. Cells were collected and re-suspended in blocking buffer at a density of 3×10⁶ cells/ml. […] The plates were washed with FACS buffer, and cells were re-suspended in 100 μL/well of PBS. Cells were then analyzed with FACSVerse™ and mean fluorescence intensity were determined. Full binding curves were generated on the CD39 expressing cells by testing a range of antibody concentrations. Apparent affinity was determined for each antibody using Prism software.

6×His tagged human CD39 = target: T3, 6×His tagged human CD39 (human); assay: Biacore, antibody captured, 6×His human CD39 as analyte, 1:1 model
T3 chain: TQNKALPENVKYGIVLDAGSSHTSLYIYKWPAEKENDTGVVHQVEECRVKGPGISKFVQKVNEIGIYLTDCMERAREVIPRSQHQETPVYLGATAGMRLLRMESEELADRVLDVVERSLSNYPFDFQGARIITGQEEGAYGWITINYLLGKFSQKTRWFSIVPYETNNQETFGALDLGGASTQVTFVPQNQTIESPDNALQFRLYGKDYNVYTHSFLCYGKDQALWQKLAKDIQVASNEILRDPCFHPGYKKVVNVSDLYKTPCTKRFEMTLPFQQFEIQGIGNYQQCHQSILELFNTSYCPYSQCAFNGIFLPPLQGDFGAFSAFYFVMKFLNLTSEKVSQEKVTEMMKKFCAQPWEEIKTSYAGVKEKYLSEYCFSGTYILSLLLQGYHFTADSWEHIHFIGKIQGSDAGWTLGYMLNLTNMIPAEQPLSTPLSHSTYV
Procedure: In particular, humanized antibodies hu23.H5L5, hu23.201, hu14.H1L1 and reference antibodies I394 and T895 were characterized for binding affinity against human CD39 using Biacore (GE). Briefly the antibodies to be tested were captured to […] (GE) using Human Antibody Capture Kit (GE). The antigen of 6×His tagged human CD39 was serially diluted for multiple doses and injected at 30 μl/min for 180 s. Buffer flow was maintained for dissociation of 400 s. 3 M MgCl₂ was used for chip regeneration. The association and dissociation curves were fit with 1:1 binding model, and the Ka/Kd/KD values for each antibody were calculated.

human CD39 [2] = target: T1, human CD39; assay: FACS, MOLP-8 cells
human CD39 [3] = target: T1, human CD39; assay: cell-based or functional assay; remark: listed apart in the source
human CD39 [4] = target: T1, human CD39; assay: FACS, MOLP-8 cells, second set

B1: T895 (antibody, V domains shown)
VH: EVQLQQSGPELVKPGASVKMSCKASGYTFTDYNMHWVKQSHGRTLEWIGYIVPLNGGSTFNQKFKGRATLTVNTSSRTAYMELRSLTSEDSAAYYCARGGTRFAYWGQGTLVTVSA
VL: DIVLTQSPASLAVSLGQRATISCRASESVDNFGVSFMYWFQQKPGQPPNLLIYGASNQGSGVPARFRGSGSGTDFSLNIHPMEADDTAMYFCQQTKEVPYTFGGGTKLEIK
Which “ATPase activity inhibition (IC50), MOLP-8 cells” value (human CD39 [1]) does the source give for B1 here?
The value was 0.51 nM.

What about the “ATPase activity inhibition (IC50), SK-MEL-5 cells” value (human CD39 [1]) of the same binder?
The value was 0.09 nM.

B2: mAb23 (antibody, V domains shown)
VH: EVQLQQSGAELLRPGASVKLSCTASGYNLKDTFLHWVKQRPEQGLEWIGRIDPANGNIKYDPKFQGKATLTADTSSNTAYLQLISLTSEDTAVYYCANSPYYYGSGYRIFDVWGAGTTVTVSS
VL: QIVLTQSPAIMSASPGEKVTITCSAFSSVNYMHWYQQKPGTSPKLLIYTTSNLASGVPTRFSGSGSGTSYSLTISRMEAEDAATYYCQQRSTYPFTFGSGTKLEIQ
notes: mouse hybridoma antibody
Does B2 bind (mouse CD39)?
Result: no binding (tested: 30 µg/ml)

B3: mAb34 (antibody, V domains shown)
VH: EIQVQQSGPELVKPGASVKVSCKASGYSFTDYNMYWVKQSHGKSLEWIGFIDPYNGYTSYNQKFKGKATLTIDKSSSTAFMHLNSLTSEDSAVYYCAIYGYDDAYYFDYWGQGTTLTVSS
VL: QIVLTQSPAIMSASPGEKVTITCSATSSVSYMHWFRQKPGTSPKLWIYSTSNLASGVPARFSGSGSGTSYSLTISRMAAEDAATYYCQQRITYPFTFGSGTKLEIT
notes: mouse hybridoma antibody
Does B3 bind (mouse CD39)?
Result: no binding (tested: 30 µg/ml)

B4: mAb35 (antibody, V domains shown)
VH: EVRLQQSGAELVKPGASVKLSCTASGFNIEDTYVHWMKQRPEQGLEWIGRIDPAIDNSKYDPKFQGKATITAVSSSNTAYLQLSSLTSEDTAVYYCALYDGYNVYAMDYWGQGTSVTVSS
VL: DIVMTQAAFSNPVTLGTSASISCRSSKNLLHSNGITYLYWYLQRPGQSPQLLIYRASTLASGVPNRFSGSESGTDFTLRISRVEAEDVGVYYCAQLLELPHTFGGGTKLEIK
notes: mouse hybridoma antibody
Does B4 bind (mouse CD39)?
Result: no binding (tested: 30 µg/ml)

B5: mAb13 (antibody, V domains shown)
VH: QIQLVQSGPELKKPGETVKISCKASGYTFTNYGMNWVKQAPGKGLRWMGLINTYTGEPTYADDFKDRFAFSLETSASTAFLQINNLKDEDMATYFCARKGIYYDYVWFFDVWGAGTTVTVSS
VL: DIQMTQSPSSLSTSLGGKVSITCKASQDINRYIAWYQHKPGKGPRLLIHYTSTLLPGIPSRFSGSGSGRDYSFSISNLEPEDIATYFCLQYSNLLTFGGGTKLEIK
notes: mouse hybridoma antibody
Does B5 bind (mouse CD39)?
Result: no binding (tested: 30 µg/ml)

B6: hu14.H1L1 (antibody, V domains shown)
VH: EVQLVESGGGLVKPGGSLRLSCAASGFTFSKYWMNWVRQAPGKGLEWVGEIRLKSNKYGTHYAESVKGRFTISRDDSKNTLYLQMNSLKTEDTAVYYCTTQLDLYWFFDVWGQGTTVTVSS
VL: EIVLTQSPATLSLSPGERATLSCRASQSISDYLHWYQQKPGQAPRLLIYYASQSISGIPARFSGSGSGTDFTLTISSLEPEDFAVYYCQNGHSLPLTFGGGTKLEIK
B6 was tested. Which Kd (6×His tagged human CD39) did it give?
Its Kd is 5.03 nM.

And the koff (6×His tagged human CD39)?
The koff was 0.00455 s⁻¹.

And the kon (6×His tagged human CD39)?
The kon was 903000 M⁻¹ s⁻¹.

B7: mAb21 (antibody, V domains shown)
VH: EVKLEKSGGGLVQPGGSMKLSCVASGFTFSNYWMNWVRQSPEKGLEWVAQIRLNPDNYATHFAESVKGRFTISRDDSKNSVYLQMNSLRAEDTGIYYCTEHGTRGFAYWGQGTLVTVSE
VL: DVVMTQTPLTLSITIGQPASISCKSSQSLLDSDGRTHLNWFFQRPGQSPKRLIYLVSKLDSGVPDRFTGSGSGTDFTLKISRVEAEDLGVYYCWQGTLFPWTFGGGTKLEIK
notes: mouse hybridoma antibody
Does B7 bind (mouse CD39)?
Result: no binding (tested: 30 µg/ml)

B8: hu23.H3L1 (antibody, V domains shown)
VH: QVQLVQSGAEVKKPGASVKLSCKASGYNLKDTFLHWVRQAPGQGLEWIGRIDPANGNIKYDPKFQGRATITADTSASTAYMELSSLRSEDTAVYYCANSPYYYGSGYRIFDVWGQGTTVTVSS
VL: EIVLTQSPATLSLSPGERATLSCSAFSSVNYMHWYQQKPGQAPRLLIYTTSNLASGIPARFSGSGSGTDFTLTISSLEPEDFAVYYCQQRSTYPFTFGQGTKLEIK
B8 was tested. Which EC50 (human CD39 [2]) did it give?
Its EC50 is roughly 15.4 nM.

B9: hu23.H5L5 (antibody, V domains shown)
VH: QVQLVQSGAEVKKPGASVKVSCKASGYNLKDTFLHWVRQAPGQGLEWMGRIDPANGNIKYDPKFQGRVTITADTSANTAYMELISLRSEDTAVYYCANSPYYYGSGYRIFDVWGQGTTVTVSS
VL: QIVLTQSPATLSLSPGERATLSCSAFSSVNYMHWYQQKPGQAPRLLIYTTSNLASGIPTRFSGSGSGTSYTLTISSLEPEDFAVYYCQQRSTYPFTFGQGTKLEIK
For B9, which “ATPase inhibition on SK-MEL-28 cells, IC50” value (human CD39 [3]) is on record?
Its value is 0.122 nM.

And the “ATPase activity inhibition (IC50), MOLP-8 cells” value (human CD39 [1])?
Its value is 0.33 nM.

And the “ATPase activity inhibition (IC50), SK-MEL-5 cells” value (human CD39 [1])?
Its value is 0.07 nM.

B10: hu23.H1L1 (antibody, V domains shown)
VH: QVQLVQSGAEVKKPGASVKVSCKASGYNLKDTFLHWVRQAPGQRLEWMGRIDPANGNIKYDPKFQGRVTITRDTSASTAYMELSSLRSEDTAVYYCARSPYYYGSGYRIFDVWGQGTTVTVSS
VL: EIVLTQSPATLSLSPGERATLSCSAFSSVNYMHWYQQKPGQAPRLLIYTTSNLASGIPARFSGSGSGTDFTLTISSLEPEDFAVYYCQQRSTYPFTFGQGTKLEIK
With B10 as the binder, how does the EC50 (human CD39 [4]) read?
The EC50 was roughly 78.2 nM.

B11: mAb14 (antibody, V domains shown)
VH: EVKLEESGGGLVQPGGSMKLSCVASGFTFSKYWMNWVRQSPEKGLEWVAEIRLKSNKYGTHYAESVKGRFTISRDDSKNNVYLQMNNLRPEDTGIYYCTTQLDLYWFFDVWGAGTTVTVSS
VL: DIVMTQSPAILSVTPGDRVSLSCRASQSISDYLHWYQQKSHESPRLLIKYASQSISGIPSRFSGSGSGSNFTLSINSVEPEDVGVYFCQNGHSLPLTFGAGTKLELR
notes: mouse hybridoma antibody
Does B11 bind (mouse CD39)?
Result: no binding (tested: 30 µg/ml)

B12: mAb19 (antibody, V domains shown)
VH: EVKLEKSGGGLVQPGGSMKLSCVASGFTFSNYWMNWVRQSPEKGLEWVAQIRLNPDNYATHYAESVKGRFTISRDDYKNSVYLQMSSLRAEDSGIYYCTQHGSRGFAYWGQGTLVTVS
VL: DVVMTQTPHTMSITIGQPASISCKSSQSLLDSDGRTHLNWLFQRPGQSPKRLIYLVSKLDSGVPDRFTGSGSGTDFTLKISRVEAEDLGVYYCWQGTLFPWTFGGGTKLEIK
notes: mouse hybridoma antibody
Does B12 bind (mouse CD39)?
Result: no binding (tested: 30 µg/ml)
